{"source": "patent US8415106B2", "about": "“Cell-based screen for agents useful for reducing neuronal demyelination or promoting neuronal remyelination” (Myelin Repair Foundation, Inc., priority 2005, dated 2013)", "molecules": {"B1": {"name": "IFN-γ: pleotropic cytokine secreted by activated T lymphocytes and natural killer cells; recombinant rat IFN-γ added to cultures or transgenically expressed in mouse CNS (protein, UniProt P01581 23-156, looked up)", "Interferon gamma": "QGTLIESLESLKNYFNSSSMDAMEGKSLLLDIWRNWQKDGNTKILESQIISFYLRLFEVLKDNQAISNNISVIESHLITNFFSNSKAKKDAFMSIAKFEVNNPQIQHKAVNELIRVIHQLSPESSLRKRKRSRC"}}, "key": {"[1]": {"tested_on": "developing oligodendrocytes and myelin", "assay": "IFN-γ-overexpressing mice crossed to PLP/SOCS1 mice: tremor, oligodendrocyte density, G ratio, unmyelinated axons at postnatal day 21", "assay_type": "in vivo", "conditions": "for Incidence of tremor: 172 × PLP/SOCS1 system", "excerpt": "The transgenic mice MBP/IFN-γ and GFAP/tTA×TRE/IFN-γ (lines 184/110 and 184/67) that overexpress IFN-γ in the CNS have been described elsewhere (Corbin et al., 1996; Gao et al., 2000; Lin et al., 2004, 2005). Briefly, MBP/IFN-γ mice are transgenic animals in which IFN-γ expression is driven by the myelin basic protein (MBP) transcriptional control region (Gao et al., 2000). GFAP/tTA×TRE/IFN-γ are double-transgenic mice obtained by mating single-transgenic GFAP/tTA to single-transgenic TRE/IFN-γ (lines 110 and 67) mice. The two TRE/IFN-γ mouse lines, line 110 and line 67, used in the experiments produce different amounts of IFN-γ when crossed to GFAP/tTA mice (184/110 and 184/67) (Lin et al., 2004, 2005). GFAP/tTA×TRE/IFN-γ is a tetracycline-off-inducible system in which the glial fibrilary acidic protein (GFAP) transcriptional control region drives the expression of tTA, which in turn, binds to the TRE (tet responsive element) and initiates the expression of IFN-γ. Administration of doxycycline suppresses tTA DNA binding and IFN-γ expression, and doxycycline removal allows for temporally-controlled induction of IFN-γ expression (Gao et al., 1999).\nIFN-γ-overexpressing mice were crossed to the PLP/SOCS1 mice in double-transgenic, (MBP/IFN-γ×PLP/SOCS1) and triple-transgenic (GFAP/tTA×TRE/IFN-γ×PLP/SOCS1) mating systems. MBP/IFN-γ×PLP/SOCS1 (172×PLP/SOCS1) mating was performed according to a standard mating protocol. The GFAP/tTA×TRE/IFN-γ×PLP/SOCS1 matings were performed in a 2-step mating process: GFAP/tTA mice were initially crossed to PLP/SOCS1 mice, and double-positive (184×PLP/SOCS1) offspring were then crossed to the TRE/IFN-γ lines 110 and 67, separately. This second mating step was performed according to the previously described “tet-off” protocol. Doxycycline 0.05 mg/ml (Sigma-Aldich) was added to the water of impregnated female mice until embryonic day 14, after which the animals were switched back to normal water, thereby allowing initiation of IFN-γ transcription, which peaks during the postnatal period (Lin et al., 2005).\nThe litters of the mating systems (F1 generation) were examined daily and sacrificed at postnatal day 21. Clinical evaluation included behavioral observation and challenged ladder walking to elicit tremor. Histological examination included quantitation of the number and density of oligodendrocytes and examination of the myelination patterns. Brain tissue was simultaneously obtained from each animal at the time of sacrifice to verify and measure the expression of IFN-γ and Flag-SOCS1 (see below). The clinical and histological findings were subsequently stratified according to genotype. All animal procedures were conducted in compliance with the National Institutes of Health Guide for Care and Use of Laboratory Animals and were approved by the Institutional Animal Care and Use Committee at The University of Chicago.\nOligodendrocyte cell density was assessed digitally using Axiovision software, at postnatal day 21, as previously described (Lin et al., 2005). The brains were sectioned sagittally through the corpus callosum dividing the brain in two symmetrical halves. Ten frozen sections from each half were prepared at 7 μm thickness, and numbered in the sequence of their preparation. The brains of three animals per study group were prepared in this fashion. Following the CC1 immunostaining the corresponding area of corpus callosum of each section was digitally selected and the corresponding total area obtained. CC1 cell counting was performed manually within the selected areas of each section, and the number of CC1 positive cells per square area (mm^2) calculated. The results were presented as mean±SD of CC1 (+) cells/mm^2 with n=3 animals per study group. […]"}, "[2]": {"tested_on": "ER stress markers (BIP, CHOP, caspase-12)", "assay": "ER stress markers in the CNS of 14-day-old mice ectopically expressing IFN-γ (released from doxycycline at E14)", "assay_type": "in vivo", "conditions": "PND 14, DOX− from E14", "excerpt": "To study the effect of INF-γ on the myelination of oligodendrocytes during mouse development, transgenic mice that allow for temporally regulated delivery of IFN-γ to the CNS using the tetracycline (tet) controllable system (Lin, et al. (2004) J. Neurosci. 24: 10074-10083) were generated. To drive tTA expression in astrocytes, the transcriptional regulatory region of the glial fibrillary acidic protein (GFAP) gene was chosen (Brenner, et al. (1994) J. Neurosci. 14: 1030-1037). GFAP/tTA mice were mated with TRE/IFN-γ mice to produce animals hemizygous for both transgenes. When these mice are maintained on doxycycline (DOX+), expression of the IFN-γ transgene is repressed (FIG. 10A); when the double transgenic mice are released from doxycycline (DOX−) INF-γ is expressed. For the purpose of these experiments, mice received doxycycline up to day 14 of development (E14), at which time the experimental animals (DOX−) stopped receiving doxycycline, while the control animals (DOX+) were continuously fed the dug. The mRNA for IFN-γ could be detected in the DOX− mice as early as 10 days after birth (data not shown).\nReal time PCR analysis was performed to determine the levels of expression of INF-γ, MHC-1, BIP, CHOP, and caspase 12. The primers for the PCR reactions for BIP, CHP and caspase 12 are given in example 1. The sense and antisense primers for INF-γ were […] (SEQ ID NO: 39) and […] (SEQ ID NO: 40), respectively; and the sense and antisense primers for MHC-1 were MHC-I sense primer: ATTCCCCAAAGGCCCATGT (SEQ ID NO: 1); and MHC-I antisense primer: […] (SEQ ID NO: 2).\nWestern blot analysis was performed on the CNS of 14 day old mice to determine the expression of caspase-12 as described in Example 6."}, "[3]": {"conditions": "184/67×PLP/SOCS1 mice (IFN-γ and SOCS1)"}, "[4]": {"conditions": "184/110×PLP/SOCS1 mice (IFN-γ and SOCS1)"}}, "data": [{"molecule": "B1", "values": [{"measurement": "Incidence of tremor", "setting": "[1]; mice expressing IFN-γ only", "value": 0, "unit": "%"}, {"measurement": "Incidence of tremor", "setting": "[1]; mice expressing both IFN-γ and SOCS1", "value": 0, "unit": "%"}, {"measurement": "G ratio (axon diameter/fiber diameter ratio)", "setting": "[1]; 184/67 mice (IFN-γ only)", "value": "0.95±0.04"}, {"measurement": "percentage of unmyelinated axons", "setting": "[1]; 184/67 mice (IFN-γ only)", "value": "57%±7"}, {"measurement": "oligodendrocytes lost", "setting": "[1]; 184/67 mice (IFN-γ only) versus wild-type", "value": "approximately 40%"}, {"measurement": "oligodendrocyte density", "setting": "[1]; 184/67 mice (IFN-γ only), wild-type 144±5", "value": "79±9 CC1 (+) cells/mm^2"}, {"measurement": "G ratio (axon diameter/fiber diameter ratio)", "setting": "[1]; [3]", "value": "0.82±0.08"}, {"measurement": "percentage of unmyelinated axons", "setting": "[1]; [3]", "value": "17%±4.5"}, {"measurement": "oligodendrocytes lost", "setting": "[1]; 184/67×PLP/SOCS1 mice (IFN-γ and SOCS1) versus PLP/SOCS1", "value": "approximately 15%"}, {"measurement": "oligodendrocyte density", "setting": "[1]; 184/67×PLP/SOCS1 mice (IFN-γ and SOCS1), PLP/SOCS1 142±5", "value": "112±7 CC1 (+) cells/mm^2"}, {"measurement": "percentage of unmyelinated axons", "setting": "[1]; 184/110 mice (IFN-γ only)", "value": "41%±6"}, {"measurement": "oligodendrocytes lost", "setting": "[1]; 184/110 mice (IFN-γ only) versus wild-type", "value": "approximately 20%"}, {"measurement": "G ratio (axon diameter/fiber diameter ratio)", "setting": "[1]; 184/110 mice (IFN-γ only), hypomyelination defined as G ratio >0.8", "value": "0.89±0.02"}, {"measurement": "oligodendrocyte density", "setting": "[1]; 184/110 mice (IFN-γ only), wild-type 146±6", "value": "115±8 CC1 (+) cells/mm^2"}, {"measurement": "G ratio (axon diameter/fiber diameter ratio)", "setting": "[1]; [4]", "value": "0.75±0.03"}, {"measurement": "percentage of unmyelinated axons", "setting": "[1]; [4]", "value": "13%±3"}, {"measurement": "oligodendrocytes lost", "setting": "[1]; 184/110×PLP/SOCS1 mice (IFN-γ and SOCS1) versus PLP/SOCS1", "value": "approximately 8%"}, {"measurement": "oligodendrocyte density", "setting": "[1]; 184/110×PLP/SOCS1 mice (IFN-γ and SOCS1), PLP/SOCS1 141±6", "value": "129±6 CC1 (+) cells/mm^2"}, {"measurement": "percentage of unmyelinated axons", "setting": "[1]; MBP/IFN-γ×PLP/SOCS1 (172×PLP/SOCS1) littermates, regardless of genotype", "value": "less than 9%"}, {"measurement": "BIP expression", "setting": "[2]", "value": "approximately 1.6 times the control levels"}, {"measurement": "CHOP expression", "setting": "[2]", "value": "~2", "unit": "times the control levels"}, {"measurement": "caspase-12 expression", "setting": "[2]", "value": "strongly enhanced"}]}]}
